Assays:
[1] = target: Grb2 SH2 (UniProt P62993); test: SH2 binding enrichment of the phosphorylated peptide, bacterial display (enrichment ratio); higher = better substrate or ligand; peptides without Tyr show the background
[2] = target: c-Src SH2; test: as above
[3] = target: SHP2-C SH2; test: as above
[4] = target: EPHB2 (UniProt P29323); test: phosphorylation enrichment, bacterial display (enrichment ratio); higher = better substrate or ligand; peptides without Tyr show the background
[5] = test system: c-Abl (mouse); test: as above
[6] = test system: c-Src; test: as above
[7] = target: FGFR1 (UniProt P11362); test: as above
[8] = target: Jak2 (UniProt O60674); test: as above
[9] = test system: Fer (mouse); test: as above
[10] = target: EPHB1 (UniProt P54762); test: as above
[11] = target: Hck (UniProt P08631); test: as above
[12] = target: FGFR3 (UniProt P22607); test: as above
[13] = target: MERTK (UniProt Q12866); test: as above
[14] = target: Fyn (UniProt P06241); test: as above
[15] = test system: AncSZ; test: as above
[16] = target: Fes (UniProt P07332); test: as above
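Wherever SH2 binding enrichment of the phosphorylated peptide, bacterial display is given: peptide library displayed on the E. coli surface as eCPX fusions, selected cells deep-sequenced, score is each peptide's frequency after selection divided by its frequency in the input.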
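Wherever phosphorylation enrichment, bacterial display is given: 11-residue human phosphosite peptides and single-mutation variants displayed on the E. coli surface, counted by deep sequencing, each peptide's frequency after selection divided by its frequency in the unselected input library; frequency after pTyr selection over input frequency; kinase dosed for 20-30% of maximal phosphorylation in three min.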

Sequence of Hck (P08631 whole entry, looked up): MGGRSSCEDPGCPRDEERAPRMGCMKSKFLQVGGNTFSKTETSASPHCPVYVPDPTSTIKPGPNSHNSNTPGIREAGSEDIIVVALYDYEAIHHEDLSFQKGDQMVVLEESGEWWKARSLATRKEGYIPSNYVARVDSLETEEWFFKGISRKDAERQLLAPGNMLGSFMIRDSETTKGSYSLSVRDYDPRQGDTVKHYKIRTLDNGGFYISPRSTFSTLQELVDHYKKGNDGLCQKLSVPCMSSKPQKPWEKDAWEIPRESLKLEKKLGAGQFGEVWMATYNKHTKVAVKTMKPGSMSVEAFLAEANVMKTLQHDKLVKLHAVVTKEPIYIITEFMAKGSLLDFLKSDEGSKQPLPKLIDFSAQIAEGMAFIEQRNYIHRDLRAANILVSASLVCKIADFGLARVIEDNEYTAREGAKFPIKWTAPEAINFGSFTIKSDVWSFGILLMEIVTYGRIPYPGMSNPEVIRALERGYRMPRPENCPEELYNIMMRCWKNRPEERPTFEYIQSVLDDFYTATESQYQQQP
Sequence of Fes (P07332 whole entry, looked up, the tested form may be a part): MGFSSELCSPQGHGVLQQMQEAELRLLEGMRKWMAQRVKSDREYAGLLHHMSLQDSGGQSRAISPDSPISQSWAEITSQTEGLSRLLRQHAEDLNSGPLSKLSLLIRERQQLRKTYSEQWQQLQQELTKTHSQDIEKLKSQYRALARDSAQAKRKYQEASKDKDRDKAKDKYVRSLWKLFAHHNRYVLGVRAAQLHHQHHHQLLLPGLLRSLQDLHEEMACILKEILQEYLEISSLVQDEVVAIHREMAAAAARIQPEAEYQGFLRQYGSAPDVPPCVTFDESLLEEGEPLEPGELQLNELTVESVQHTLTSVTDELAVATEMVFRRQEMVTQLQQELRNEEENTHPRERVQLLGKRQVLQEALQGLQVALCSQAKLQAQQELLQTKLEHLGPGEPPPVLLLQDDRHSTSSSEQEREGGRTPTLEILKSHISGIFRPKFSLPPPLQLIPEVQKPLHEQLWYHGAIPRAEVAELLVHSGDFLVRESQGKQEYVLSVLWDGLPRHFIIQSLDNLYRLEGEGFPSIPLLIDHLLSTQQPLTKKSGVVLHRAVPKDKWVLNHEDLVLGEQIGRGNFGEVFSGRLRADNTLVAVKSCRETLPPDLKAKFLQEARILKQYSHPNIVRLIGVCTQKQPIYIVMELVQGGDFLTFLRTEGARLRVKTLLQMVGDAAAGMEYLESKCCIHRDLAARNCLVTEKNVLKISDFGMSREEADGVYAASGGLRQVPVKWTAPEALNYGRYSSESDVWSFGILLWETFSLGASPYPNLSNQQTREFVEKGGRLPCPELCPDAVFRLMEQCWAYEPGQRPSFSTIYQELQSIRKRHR
Sequence of Fyn (P06241 whole entry, looked up): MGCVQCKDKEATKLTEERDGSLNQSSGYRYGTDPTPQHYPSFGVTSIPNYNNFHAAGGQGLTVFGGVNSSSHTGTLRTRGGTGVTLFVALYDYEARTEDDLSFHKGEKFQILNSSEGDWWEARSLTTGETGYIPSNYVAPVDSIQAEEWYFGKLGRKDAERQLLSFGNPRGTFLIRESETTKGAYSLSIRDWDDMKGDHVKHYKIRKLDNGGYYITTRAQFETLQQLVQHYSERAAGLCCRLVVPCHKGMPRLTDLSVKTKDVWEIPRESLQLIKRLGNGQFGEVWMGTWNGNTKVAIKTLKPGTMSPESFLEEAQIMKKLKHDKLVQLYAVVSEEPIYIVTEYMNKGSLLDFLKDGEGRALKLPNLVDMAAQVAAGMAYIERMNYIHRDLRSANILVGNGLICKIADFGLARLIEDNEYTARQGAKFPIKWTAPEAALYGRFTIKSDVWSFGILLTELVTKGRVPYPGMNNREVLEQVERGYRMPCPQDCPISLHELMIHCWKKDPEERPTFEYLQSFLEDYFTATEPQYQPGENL
Sequence of EPHB1 (P54762 whole entry, looked up): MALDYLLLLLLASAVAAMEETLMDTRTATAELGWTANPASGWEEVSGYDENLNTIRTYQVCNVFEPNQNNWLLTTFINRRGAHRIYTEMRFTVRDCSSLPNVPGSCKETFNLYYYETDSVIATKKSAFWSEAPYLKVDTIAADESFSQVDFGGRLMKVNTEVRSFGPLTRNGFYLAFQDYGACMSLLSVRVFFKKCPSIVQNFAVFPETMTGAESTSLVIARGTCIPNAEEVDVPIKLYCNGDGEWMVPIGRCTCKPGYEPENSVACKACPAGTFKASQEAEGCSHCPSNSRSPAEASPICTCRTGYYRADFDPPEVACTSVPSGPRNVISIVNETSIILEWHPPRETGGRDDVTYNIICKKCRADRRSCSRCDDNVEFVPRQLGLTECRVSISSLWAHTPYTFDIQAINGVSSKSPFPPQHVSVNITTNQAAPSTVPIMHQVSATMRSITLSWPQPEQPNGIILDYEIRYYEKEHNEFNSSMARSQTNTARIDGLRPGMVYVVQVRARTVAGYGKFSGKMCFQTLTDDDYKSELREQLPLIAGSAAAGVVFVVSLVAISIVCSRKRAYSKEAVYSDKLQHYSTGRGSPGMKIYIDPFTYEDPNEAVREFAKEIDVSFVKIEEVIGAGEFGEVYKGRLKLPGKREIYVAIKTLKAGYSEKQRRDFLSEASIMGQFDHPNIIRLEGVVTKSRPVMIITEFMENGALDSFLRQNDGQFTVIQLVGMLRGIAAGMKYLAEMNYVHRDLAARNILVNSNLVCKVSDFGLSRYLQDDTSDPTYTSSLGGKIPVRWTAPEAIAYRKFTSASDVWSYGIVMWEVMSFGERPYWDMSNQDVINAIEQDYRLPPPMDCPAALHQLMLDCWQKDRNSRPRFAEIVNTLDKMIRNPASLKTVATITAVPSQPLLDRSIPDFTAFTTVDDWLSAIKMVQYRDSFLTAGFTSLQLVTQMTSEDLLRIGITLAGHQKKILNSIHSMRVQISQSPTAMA
Sequence of FGFR3 (P22607 whole entry, looked up): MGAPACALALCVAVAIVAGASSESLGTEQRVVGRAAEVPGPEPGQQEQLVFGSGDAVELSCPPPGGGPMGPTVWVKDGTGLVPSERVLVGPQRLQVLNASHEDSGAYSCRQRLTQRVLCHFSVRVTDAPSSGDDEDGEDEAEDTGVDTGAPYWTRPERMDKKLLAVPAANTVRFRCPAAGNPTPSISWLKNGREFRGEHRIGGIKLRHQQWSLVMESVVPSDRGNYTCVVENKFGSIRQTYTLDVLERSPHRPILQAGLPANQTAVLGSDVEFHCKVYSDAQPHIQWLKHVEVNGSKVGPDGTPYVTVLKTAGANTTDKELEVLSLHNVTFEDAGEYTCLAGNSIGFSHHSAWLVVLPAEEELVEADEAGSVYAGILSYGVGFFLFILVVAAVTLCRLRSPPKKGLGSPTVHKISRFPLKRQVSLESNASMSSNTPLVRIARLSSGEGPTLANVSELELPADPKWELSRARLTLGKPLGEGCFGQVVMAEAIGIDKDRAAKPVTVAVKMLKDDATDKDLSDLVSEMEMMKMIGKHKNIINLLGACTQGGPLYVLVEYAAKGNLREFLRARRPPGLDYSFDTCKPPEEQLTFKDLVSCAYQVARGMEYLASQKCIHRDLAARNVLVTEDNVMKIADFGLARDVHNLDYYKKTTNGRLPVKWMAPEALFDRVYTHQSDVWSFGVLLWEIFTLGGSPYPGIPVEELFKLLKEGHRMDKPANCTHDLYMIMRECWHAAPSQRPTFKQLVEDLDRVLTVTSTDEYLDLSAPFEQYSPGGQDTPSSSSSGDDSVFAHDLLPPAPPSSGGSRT
Sequence of Jak2 (O60674 whole entry, looked up): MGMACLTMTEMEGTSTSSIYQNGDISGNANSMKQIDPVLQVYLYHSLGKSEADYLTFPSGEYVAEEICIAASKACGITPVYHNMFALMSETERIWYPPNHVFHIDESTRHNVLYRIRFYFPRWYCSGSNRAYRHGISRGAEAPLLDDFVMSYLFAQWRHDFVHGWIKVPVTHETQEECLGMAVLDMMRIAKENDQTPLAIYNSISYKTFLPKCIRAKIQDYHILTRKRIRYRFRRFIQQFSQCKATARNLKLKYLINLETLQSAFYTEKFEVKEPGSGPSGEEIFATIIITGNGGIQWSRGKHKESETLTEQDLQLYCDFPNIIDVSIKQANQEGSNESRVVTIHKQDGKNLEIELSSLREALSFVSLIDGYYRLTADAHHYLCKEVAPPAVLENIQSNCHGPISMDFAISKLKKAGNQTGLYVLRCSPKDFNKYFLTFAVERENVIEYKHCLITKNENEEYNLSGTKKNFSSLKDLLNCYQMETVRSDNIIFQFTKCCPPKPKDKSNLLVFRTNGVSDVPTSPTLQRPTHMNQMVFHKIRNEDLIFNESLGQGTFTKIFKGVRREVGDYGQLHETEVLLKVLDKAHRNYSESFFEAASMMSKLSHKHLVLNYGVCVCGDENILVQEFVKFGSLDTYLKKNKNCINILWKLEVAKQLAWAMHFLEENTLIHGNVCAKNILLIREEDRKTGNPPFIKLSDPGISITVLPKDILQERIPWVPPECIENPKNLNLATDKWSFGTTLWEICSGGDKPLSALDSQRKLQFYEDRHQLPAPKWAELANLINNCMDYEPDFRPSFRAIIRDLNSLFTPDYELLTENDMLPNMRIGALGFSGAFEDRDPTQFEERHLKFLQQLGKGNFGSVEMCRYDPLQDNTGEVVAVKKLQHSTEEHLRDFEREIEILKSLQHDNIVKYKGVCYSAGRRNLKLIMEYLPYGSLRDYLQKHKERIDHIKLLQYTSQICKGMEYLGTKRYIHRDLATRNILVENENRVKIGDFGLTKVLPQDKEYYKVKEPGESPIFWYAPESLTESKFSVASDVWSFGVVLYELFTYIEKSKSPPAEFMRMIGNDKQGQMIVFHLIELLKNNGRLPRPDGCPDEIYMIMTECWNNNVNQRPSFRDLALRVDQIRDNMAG
Sequence of Grb2 SH2 (P62993 whole entry, looked up): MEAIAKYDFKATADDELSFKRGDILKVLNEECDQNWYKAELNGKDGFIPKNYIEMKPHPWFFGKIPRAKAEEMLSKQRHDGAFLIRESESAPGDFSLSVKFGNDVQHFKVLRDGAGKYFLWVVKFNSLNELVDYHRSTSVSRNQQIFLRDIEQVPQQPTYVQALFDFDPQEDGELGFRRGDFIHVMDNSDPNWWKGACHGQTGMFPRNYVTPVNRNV

| Sequence | SH2 binding enrichment [1] | SH2 binding enrichment [2] | SH2 binding enrichment [3] | phosphorylation enrichment [4] | phosphorylation enrichment [5] | phosphorylation enrichment [6] | phosphorylation enrichment [7] | phosphorylation enrichment [8] | phosphorylation enrichment [9] | phosphorylation enrichment [10] | phosphorylation enrichment [11] | phosphorylation enrichment [12] | phosphorylation enrichment [13] | phosphorylation enrichment [14] | phosphorylation enrichment [15] | phosphorylation enrichment [16] |
| --- | --- | --- | --- | --- | --- | --- | --- | --- | --- | --- | --- | --- | --- | --- | --- | --- |
| QFPDVYAREEV [CRX_Y67_YF] | 0.854 | 0.658 | 0.776 | 0.489 | 0.68 | 0.672 | 0.649 | 1.53 | 0.879 | 0.514 | 0.645 | 0.693 | 0.603 | 0.624 | 1.06 | 1.43 |
| TLNHQYDYTFD [CSNK1A1_Y292] | 0.779 | 9.88 | 0.691 | 0.706 | 0.565 | 1.27 | 0.85 | 0.783 | 0.432 | 0.512 | 0.536 | 0.824 | 0.453 | 0.519 | 1.05 | 0.964 |
| KLQKFYRQNPD [EHHADH_Y683_YF] | 0.719 | 0.418 | 0.647 | 0.348 | 0.581 | 0.409 | 0.343 | 0.393 | 0.387 | 0.545 | 0.443 | 0.416 | 0.452 | 0.418 | 0.499 | 0.498 |
| IKRIDYEFVEM [ADA_Y84_A83D] | 0.967 | 0.5 | 0.56 | 3.22 | 0.622 | 0.404 | 1.02 | 0.932 | 1.82 | 6.08 | 0.477 | 0.742 | 0.375 | 0.469 | 0.89 | 1.18 |
| VATSWYRSPEL [CDKL5_Y177_R175S] | 0.827 | 0.549 | 0.77 | 0.435 | 0.427 | 0.344 | 0.553 | 0.548 | 0.409 | 0.417 | 0.469 | 0.545 | 0.412 | 0.466 | 0.768 | 0.656 |
| FFWDGYMPRQF [GSS_Y270_R267W_YF] | 1.05 | 0.81 | 0.782 | 0.551 | 0.734 | 0.43 | 0.481 | 3.7 | 0.504 | 0.601 | 0.471 | 0.735 | 0.398 | 0.349 | 1.12 | 1.19 |
| RNGNRYFKGIV [DCX_Y64_D62N] | 0.602 | 0.509 | 0.726 | 0.51 | 0.799 | 0.846 | 0.578 | 1.02 | 0.6 | 0.516 | 0.527 | 0.513 | 0.701 | 0.42 | 1.33 | 0.607 |
| DLDTDYGSGFP [RNASEH2A_Y206_YF] | 0.589 | 0.404 | 0.592 | 0.443 | 0.673 | 0.511 | 0.447 | 0.979 | 0.465 | 0.585 | 0.49 | 0.588 | 0.38 | 0.45 | 1.22 | 0.978 |
| EYYENYIEELK [PARP4_Y218_F215Y] | 2.13 | 1.04 | 0.706 | 0.967 | 0.775 | 1.01 | 4.75 | 1.11 | 0.706 | 1.09 | 0.554 | 3.7 | 0.38 | 0.648 | 2.04 | 1.29 |
| NPQKSYLIRLF [WAS_Y83_F84L_YF] | 1.03 | 0.672 | 0.822 | 0.484 | 0.523 | 0.38 | 0.439 | 0.681 | 0.448 | 0.462 | 0.407 | 0.696 | 0.413 | 0.398 | 0.768 | 0.957 |
| AIYRRYSKFFD [SH3PXD2B_Y45] | 0.674 | 0.511 | 0.495 | 0.568 | 0.783 | 0.636 | 0.509 | 0.83 | 0.383 | 0.603 | 0.594 | 0.555 | 0.596 | 0.485 | 0.989 | 1.03 |
| KAIMTYVFSFF [ACTN4_Y260_S262F_YF] | 1.26 | 0.888 | 1.19 | 0.461 | 0.526 | 0.425 | 0.443 | 0.698 | 0.454 | 0.553 | 0.502 | 0.725 | 0.431 | 0.464 | 0.989 | 0.945 |
| FQLENCCNGGG [INS_Y108_Y108C_YF] | 0.772 | 0.537 | 0.444 | 0.586 | 0.546 | 0.467 | 0.442 | 0.85 | 0.564 | 0.509 | 0.504 | 0.523 | 0.516 | 0.445 | 0.896 | 0.944 |
| KKLAEYGPQGK [CLCA1_Y147_R152K] | 0.769 | 0.491 | 0.609 | 0.324 | 0.427 | 0.348 | 0.369 | 0.366 | 0.326 | 0.334 | 0.401 | 0.295 | 0.273 | 0.401 | 0.361 | 0.498 |
| LTYHMYADPNI [SOS1_Y618_F623I] | 0.71 | 8.46 | 1.41 | 6.28 | 3.47 | 9.95 | 4.27 | 2.03 | 1.23 | 5.79 | 4.78 | 3.13 | 3.73 | 6.07 | 2.56 | 1.59 |
| AEFGLYGAMVR [VSX2_Y222_YF] | 0.783 | 0.42 | 0.816 | 0.719 | 0.678 | 3.61 | 0.538 | 0.868 | 0.828 | 0.741 | 6.05 | 0.715 | 0.674 | 5.3 | 1.07 | 1.21 |
| SSYDIYHLSRE [KIR3DL2_Y253] | 0.842 | 0.73 | 0.816 | 3.54 | 1.18 | 9.33 | 2.73 | 0.724 | 1.74 | 2.42 | 12.2 | 2.01 | 6.05 | 13 | 1.27 | 0.851 |

| Sequence | SH2 binding enrichment [1] | SH2 binding enrichment [2] | SH2 binding enrichment [3] | phosphorylation enrichment [4] | phosphorylation enrichment [5] | phosphorylation enrichment [6] | phosphorylation enrichment [7] | phosphorylation enrichment [8] | phosphorylation enrichment [9] | phosphorylation enrichment [10] | phosphorylation enrichment [11] | phosphorylation enrichment [12] | phosphorylation enrichment [13] | phosphorylation enrichment [14] | phosphorylation enrichment [15] | phosphorylation enrichment [16] |
| --- | --- | --- | --- | --- | --- | --- | --- | --- | --- | --- | --- | --- | --- | --- | --- | --- |
| HLRAGYIIPLQ [GAA_Y822] | 1.66 | 1.66 | 3.2 | 0.453 | 0.681 | 0.327 | 0.367 | 0.671 | 0.257 | 0.398 | 0.268 | 0.534 | 0.355 | 0.417 | 0.668 | 0.753 |
| PVRIAYDRPRG [SUGP2_Y985] | 0.641 | 0.623 | 0.764 | 0.691 | 0.671 | 0.609 | 0.384 | 1.44 | 0.746 | 0.464 | 0.426 | 0.653 | 0.591 | 0.486 | 0.923 | 0.737 |
| KPEKTYGLRNE [CEP43_Y267_K271N] | 0.594 | 0.534 | 0.758 | 0.362 | 0.551 | 0.439 | 0.394 | 0.512 | 0.321 | 0.39 | 0.406 | 0.371 | 0.397 | 0.37 | 0.494 | 0.569 |
| KLFIEYPTGSG [IRF2BPL_Y423] | 0.82 | 0.505 | 1 | 0.565 | 0.521 | 0.402 | 0.412 | 0.653 | 0.301 | 0.478 | 0.431 | 0.486 | 0.374 | 0.444 | 0.636 | 0.775 |
| RLAQRYLIWEC [SCN5A_Y694] | 0.982 | 0.691 | 0.655 | 0.914 | 0.86 | 0.492 | 0.647 | 1.34 | 0.546 | 0.943 | 0.679 | 0.841 | 0.609 | 0.595 | 1.09 | 1.66 |
| FRPPYYHRNCM [HGD_Y334] | 1.21 | 1.15 | 1.23 | 0.449 | 0.799 | 0.442 | 0.513 | 0.89 | 0.477 | 0.429 | 0.432 | 0.504 | 0.426 | 0.418 | 0.708 | 0.88 |
| TFRPPYFHRNC [HGD_Y333_YF] | 1.1 | 1.09 | 1.41 | 0.946 | 0.635 | 0.454 | 0.617 | 0.717 | 0.626 | 0.522 | 0.661 | 0.771 | 1.03 | 0.473 | 0.733 | 0.869 |
| LTERGYSFTTK [ACTG1_Y198_T203K] | 0.679 | 0.454 | 0.653 | 2.03 | 0.995 | 0.982 | 1.96 | 1.65 | 2.1 | 1.8 | 0.911 | 1.54 | 1.79 | 1.66 | 3 | 2.1 |
| RGESFYQDTMN [RARS_Y338_R341T] | 0.98 | 0.694 | 0.807 | 1.63 | 1.03 | 0.602 | 0.695 | 0.941 | 1.79 | 2.62 | 0.429 | 0.888 | 1.02 | 0.634 | 1.02 | 0.98 |
| RMGNLYDIDED [GRIN2A_Y1246] | 0.599 | 1.23 | 0.501 | 0.491 | 1.11 | 1.25 | 0.591 | 1.36 | 0.543 | 0.583 | 1.25 | 0.808 | 0.606 | 2.25 | 1.11 | 1.32 |
| AGKEEYSAMRD [HRAS_Y64_Q61K] | 0.867 | 0.761 | 0.559 | 0.505 | 0.629 | 0.436 | 0.529 | 0.644 | 0.481 | 0.467 | 0.49 | 0.582 | 0.44 | 0.432 | 0.799 | 0.871 |
| DQLVKHGVNPG [TMPO_Y127_Y127H] | 0.669 | 0.457 | 0.702 | 0.304 | 0.421 | 0.346 | 0.329 | 0.479 | 0.284 | 0.347 | 0.386 | 0.377 | 0.344 | 0.308 | 0.47 | 0.467 |
| DNEALYDTCFR [TUBB2B_Y208_I210T] | 0.725 | 0.56 | 0.456 | 2.71 | 2.25 | 5.2 | 0.61 | 1.23 | 8.38 | 2.85 | 6.09 | 0.888 | 6.63 | 6.81 | 2.34 | 1.49 |
| VVEFGYEFFAK [PPP1CB_Y254_D252Y_YF] | 0.96 | 1.09 | 0.635 | 0.52 | 0.965 | 0.503 | 0.558 | 1.41 | 0.553 | 0.583 | 0.559 | 0.829 | 0.488 | 0.573 | 1.52 | 1.26 |
| HLGNQYVNVMN [SLC3A1_Y461_R456H] | 20.1 | 4 | 2.63 | 0.477 | 0.764 | 0.471 | 0.735 | 0.618 | 0.603 | 0.565 | 0.85 | 0.643 | 0.29 | 0.483 | 0.905 | 0.902 |
| KIITDYFVDMK [MPP4_Y566_V562I_YF] | 0.83 | 0.526 | 0.571 | 0.566 | 0.644 | 0.529 | 0.732 | 1.14 | 0.456 | 0.575 | 0.479 | 0.783 | 0.37 | 0.513 | 1.05 | 1.15 |

Source: the supplement of paper PMC10065799, “High-throughput profiling of sequence recognition by tyrosine kinases and SH2 domains using bacterial peptide display” (eLife, 2023)
